Measurements: patent US20060257938A1, “Method of screening for drugs that block ligand binding to a lipid binding protein” (priority 2005, published 2006)
Substitutions are numbered along the chain they refer to. Numbers in names are those of the source.

B1: L2P22H10: FABP probe, substitutions M18I F55G A73M vs SEQ ID NO: 2 (protein, listed as Rattus norvegicus)
chain: AFDGTWKVDRNENYEKFIEKMGINVVKRKLGAHDNLKLTITQEGNKFTVKESSNGRNIDVVFELGVDFAYSLMDGTELTGTWTMEGNKLVGKFKRVDNGKELIAVREISGNELIQTYTYEGVEAKRIFKKE
modifications: PEPTIDE (1)...(131) wild-type rat intestinal fatty acid binding protein
B2: L2P23G7: FABP probe, substitutions M18V G31F F55L vs SEQ ID NO: 2 (protein, listed as Rattus norvegicus)
chain: B1 chain with I18V, G31F, G55L, M73A
modifications: PEPTIDE (1)...(131) wild-type rat intestinal fatty acid binding protein
B3: L2P16A3: FABP probe, substitutions M18I G31L A73G vs SEQ ID NO: 2 (protein, listed as Rattus norvegicus)
chain: B1 chain with G31L, G55F, M73G
modifications: PEPTIDE (1)...(131) wild-type rat intestinal fatty acid binding protein
B4: L2P21G3: FABP probe, substitutions M18I G31M F55M vs SEQ ID NO: 2 (protein, listed as Rattus norvegicus)
chain: B1 chain with G31M, G55M, M73A
modifications: PEPTIDE (1)...(131) wild-type rat intestinal fatty acid binding protein
B5: L2P18H12: FABP probe, substitutions M18I G31V A73G vs SEQ ID NO: 2 (protein, listed as Rattus norvegicus)
chain: B1 chain with G31V, G55F, M73G
modifications: PEPTIDE (1)...(131) wild-type rat intestinal fatty acid binding protein
B6: L2P8B8: FABP probe, substitution A73F vs SEQ ID NO: 2 (protein, listed as Rattus norvegicus)
chain: B1 chain with I18M, G55F, M73F
modifications: PEPTIDE (1)...(131) wild-type rat intestinal fatty acid binding protein
B7: L2P22E6: FABP probe, substitutions M18V G31A F55I A73W vs SEQ ID NO: 2 (protein, listed as Rattus norvegicus)
chain: B1 chain with I18V, G31A, G55I, M73W
modifications: PEPTIDE (1)...(131) wild-type rat intestinal fatty acid binding protein
B8: L2P7F4: FABP probe, substitutions M18V G31V A73I vs SEQ ID NO: 2 (protein, listed as Rattus norvegicus)
chain: B1 chain with I18V, G31V, G55F, M73I
modifications: PEPTIDE (1)...(131) wild-type rat intestinal fatty acid binding protein
B9: L2P8A6: FABP probe, substitutions M18I G31V F55V A73V vs SEQ ID NO: 2 (protein, listed as Rattus norvegicus)
chain: B1 chain with G31V, G55V, M73V
modifications: PEPTIDE (1)...(131) wild-type rat intestinal fatty acid binding protein
B10: L2P21C1: FABP probe, substitutions M18I G31Y A73V vs SEQ ID NO: 2 (protein, listed as Rattus norvegicus)
chain: B1 chain with G31Y, G55F, M73V
modifications: PEPTIDE (1)...(131) wild-type rat intestinal fatty acid binding protein
B11: L2P23A4: FABP probe, substitutions M18V G31I F55L A73V vs SEQ ID NO: 2 (protein, listed as Rattus norvegicus)
chain: B1 chain with I18V, G31I, G55L, M73V
modifications: PEPTIDE (1)...(131) wild-type rat intestinal fatty acid binding protein
B12: L2P8A5: FABP probe, substitutions M18V G31A F55W A73W vs SEQ ID NO: 2 (protein, listed as Rattus norvegicus)
chain: B1 chain with I18V, G31A, G55W, M73W
modifications: PEPTIDE (1)...(131) wild-type rat intestinal fatty acid binding protein
B13: L2P12C5: FABP probe, substitutions M18I G31I F55M A73I vs SEQ ID NO: 2 (protein, listed as Rattus norvegicus)
chain: B1 chain with G31I, G55M, M73I
modifications: PEPTIDE (1)...(131) wild-type rat intestinal fatty acid binding protein

Assay: Probe fluorescence ratio response to stearic acid relative to ADIFAB2
Format: binding
Conditions: Table 5
Method in brief: (§1)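 Each fatty acid's response was expressed relative to ADIFAB2, the rI-FABP-L72A probe, as ΔR/ΔRreference. ΔR is the change in the background-corrected two-wavelength intensity ratio R=Fλ1/Fλ2 from its analyte-free baseline R0. Emission was read near about 420-480 nm for unbound and about 495-580 nm for FFA-bound probe.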
For B1, the “ΔR/DRAΔ2 SA” value was 0.4.
For B2, the “ΔR/DRAΔ2 SA” value was 0.4.
In the case of B3, the “ΔR/DRAΔ2 SA” value is reported as 0.3.
In the case of B4, the “ΔR/DRAΔ2 SA” value is reported as 0.3.
With B5 the “ΔR/DRAΔ2 SA” value was 0.5.
In the case of B6, the “ΔR/DRAΔ2 SA” value is reported as 0.4.
For B7, the “ΔR/DRAΔ2 SA” value was 0.4.
In the case of B8, the “ΔR/DRAΔ2 SA” value is reported as 0.3.
In the case of B9, the “ΔR/DRAΔ2 SA” value is reported as 0.2.
In the case of B10, the “ΔR/DRAΔ2 SA” value is reported as 1.6.
With B11 the “ΔR/DRAΔ2 SA” value was 1.2.
In the case of B12, the “ΔR/DRAΔ2 SA” value is reported as 0.4.
In the case of B13, the “ΔR/DRAΔ2 SA” value is reported as 0.4.

Assay: Probe fluorescence ratio response to palmitic acid relative to ADIFAB2
Format: binding
Conditions: Table 5
Method in brief: as §1
In the case of B1, the “ΔR/DRAΔ2 PA” value is reported as 1.1.
For B2, the “ΔR/DRAΔ2 PA” value was 1.0.
For B3, the “ΔR/DRAΔ2 PA” value was 1.1.
For B4, the “ΔR/DRAΔ2 PA” value was 1.1.
With B5 the “ΔR/DRAΔ2 PA” value was 1.6.
In the case of B6, the “ΔR/DRAΔ2 PA” value is reported as 1.1.
In the case of B7, the “ΔR/DRAΔ2 PA” value is reported as 1.3.
For B8, the “ΔR/DRAΔ2 PA” value was 1.3.
For B9, the “ΔR/DRAΔ2 PA” value was 1.0.
In the case of B10, the “ΔR/DRAΔ2 PA” value is reported as 2.0.
For B11, the “ΔR/DRAΔ2 PA” value was 1.9.
In the case of B12, the “ΔR/DRAΔ2 PA” value is reported as 1.5.
With B13 the “ΔR/DRAΔ2 PA” value was 1.5.

Assay: Probe fluorescence ratio response to palmitoleic acid relative to ADIFAB2
Format: binding
Conditions: Table 5
Method in brief: as §1
For B1, the “ΔR/DRAΔ2 POA” value was 1.2.
For B2, the “ΔR/DRAΔ2 POA” value was 1.4.
With B3 the “ΔR/DRAΔ2 POA” value was 1.4.
In the case of B4, the “ΔR/DRAΔ2 POA” value is reported as 1.4.
In the case of B5, the “ΔR/DRAΔ2 POA” value is reported as 2.1.
In the case of B6, the “ΔR/DRAΔ2 POA” value is reported as 2.4.
With B7 the “ΔR/DRAΔ2 POA” value was 1.6.
With B8 the “ΔR/DRAΔ2 POA” value was 1.3.
With B9 the “ΔR/DRAΔ2 POA” value was 1.3.
With B10 the “ΔR/DRAΔ2 POA” value was 2.9.
In the case of B11, the “ΔR/DRAΔ2 POA” value is reported as 2.8.
With B12 the “ΔR/DRAΔ2 POA” value was 2.0.
For B13, the “ΔR/DRAΔ2 POA” value was 1.9.

Assay: Probe fluorescence ratio response to oleic acid relative to ADIFAB2
Format: binding
Conditions: Table 5
Method in brief: as §1
For B1, the “ΔR/DRAΔ2 OA” value was 0.6.
With B2 the “ΔR/DRAΔ2 OA” value was 0.6.
For B3, the “ΔR/DRAΔ2 OA” value was 0.6.
For B4, the “ΔR/DRAΔ2 OA” value was 0.6.
In the case of B5, the “ΔR/DRAΔ2 OA” value is reported as 1.0.
In the case of B6, the “ΔR/DRAΔ2 OA” value is reported as 0.6.
In the case of B7, the “ΔR/DRAΔ2 OA” value is reported as 0.8.
For B8, the “ΔR/DRAΔ2 OA” value was 0.6.
For B9, the “ΔR/DRAΔ2 OA” value was 0.4.
In the case of B10, the “ΔR/DRAΔ2 OA” value is reported as 2.7.
In the case of B11, the “ΔR/DRAΔ2 OA” value is reported as 2.3.
In the case of B12, the “ΔR/DRAΔ2 OA” value is reported as 0.9.
With B13 the “ΔR/DRAΔ2 OA” value was 0.8.

Assay: Probe fluorescence ratio response to linolenic acid relative to ADIFAB2
Format: binding
Conditions: Table 5
Method in brief: as §1
For B1, the “ΔR/DRAΔ2 LNA” value was 1.3.
For B2, the “ΔR/DRAΔ2 LNA” value was 1.2.
For B3, the “ΔR/DRAΔ2 LNA” value was 1.5.
For B4, the “ΔR/DRAΔ2 LNA” value was 1.4.
With B5 the “ΔR/DRAΔ2 LNA” value was 1.9.
For B6, the “ΔR/DRAΔ2 LNA” value was 1.8.
In the case of B7, the “ΔR/DRAΔ2 LNA” value is reported as 1.6.
With B8 the “ΔR/DRAΔ2 LNA” value was 1.5.
In the case of B9, the “ΔR/DRAΔ2 LNA” value is reported as 1.2.
With B10 the “ΔR/DRAΔ2 LNA” value was 3.1.
With B11 the “ΔR/DRAΔ2 LNA” value was 2.6.
For B12, the “ΔR/DRAΔ2 LNA” value was 1.9.
For B13, the “ΔR/DRAΔ2 LNA” value was 1.7.

Assay: Probe fluorescence ratio response to arachidonic acid relative to ADIFAB2
Format: binding
Conditions: Table 5; Arachidonic acid
Method in brief: as §1
In the case of B1, the “ΔR/DRAΔ2 AA” value is reported as 0.9.
For B2, the “ΔR/DRAΔ2 AA” value was 0.9.
For B3, the “ΔR/DRAΔ2 AA” value was 1.0.
With B4 the “ΔR/DRAΔ2 AA” value was 1.0.
For B5, the “ΔR/DRAΔ2 AA” value was 1.3.
With B6 the “ΔR/DRAΔ2 AA” value was 1.1.
With B7 the “ΔR/DRAΔ2 AA” value was 1.0.
With B8 the “ΔR/DRAΔ2 AA” value was 0.8.
In the case of B9, the “ΔR/DRAΔ2 AA” value is reported as 0.6.
In the case of B10, the “ΔR/DRAΔ2 AA” value is reported as 2.8.
In the case of B11, the “ΔR/DRAΔ2 AA” value is reported as 2.8.
For B12, the “ΔR/DRAΔ2 AA” value was 1.1.
In the case of B13, the “ΔR/DRAΔ2 AA” value is reported as 1.3.

Assay: Probe fluorescence ratio response to linoleic acid relative to ADIFAB2
Format: binding
Conditions: Table 5
Method in brief: as §1
For B1, the “ΔR/DRAΔ2 LA” value was 1.1.
For B2, the “ΔR/DRAΔ2 LA” value was 1.0.
In the case of B3, the “ΔR/DRAΔ2 LA” value is reported as 1.1.
With B4 the “ΔR/DRAΔ2 LA” value was 1.1.
In the case of B5, the “ΔR/DRAΔ2 LA” value is reported as 1.7.
In the case of B6, the “ΔR/DRAΔ2 LA” value is reported as 1.2.
In the case of B7, the “ΔR/DRAΔ2 LA” value is reported as 1.3.
In the case of B8, the “ΔR/DRAΔ2 LA” value is reported as 1.1.
For B9, the “ΔR/DRAΔ2 LA” value was 0.8.
For B10, the “ΔR/DRAΔ2 LA” value was 3.4.
With B11 the “ΔR/DRAΔ2 LA” value was 3.1.
For B12, the “ΔR/DRAΔ2 LA” value was 1.6.
With B13 the “ΔR/DRAΔ2 LA” value was 1.5.
